Legend:
[1] = target: T1, full length monkey MSR1 on HEK293.mfMSR1 cells (Macaca fascicularis, UniProt A0A2K5UWE2 1-451); experiment: ECL cell binding (Meso Scale), ratio to isotype control compared with parental HEK293
T1 construct: whole, on cells; also called mfMSR1 engineered cells
T1 sequence: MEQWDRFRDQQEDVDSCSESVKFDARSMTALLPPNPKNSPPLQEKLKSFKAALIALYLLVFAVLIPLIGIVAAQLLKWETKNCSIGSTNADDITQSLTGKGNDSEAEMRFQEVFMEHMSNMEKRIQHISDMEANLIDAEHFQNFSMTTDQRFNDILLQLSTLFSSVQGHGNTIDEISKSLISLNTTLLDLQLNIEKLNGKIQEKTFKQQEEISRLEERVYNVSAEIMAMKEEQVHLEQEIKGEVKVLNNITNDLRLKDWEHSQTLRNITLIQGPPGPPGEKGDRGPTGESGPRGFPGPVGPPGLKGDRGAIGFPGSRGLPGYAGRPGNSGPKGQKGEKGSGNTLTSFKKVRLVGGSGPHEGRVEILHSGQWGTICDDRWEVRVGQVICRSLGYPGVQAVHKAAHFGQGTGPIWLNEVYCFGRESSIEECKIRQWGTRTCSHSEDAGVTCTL

[2] = target: T2, human MSR1 extracellular domain expressed with a N-terminal nonahistidine tag (His9-hMSR1); R&D Systems, Cat … (human, UniProt P21757 77-451); experiment: SPR Biacore, 25C, mAb captured by anti-human Fc, MSR1 as analyte; calculated from kd fixed at 1.00E-05
T2 construct: extracellular domain; Bought protein; also called His-hMSR1
T2 sequence: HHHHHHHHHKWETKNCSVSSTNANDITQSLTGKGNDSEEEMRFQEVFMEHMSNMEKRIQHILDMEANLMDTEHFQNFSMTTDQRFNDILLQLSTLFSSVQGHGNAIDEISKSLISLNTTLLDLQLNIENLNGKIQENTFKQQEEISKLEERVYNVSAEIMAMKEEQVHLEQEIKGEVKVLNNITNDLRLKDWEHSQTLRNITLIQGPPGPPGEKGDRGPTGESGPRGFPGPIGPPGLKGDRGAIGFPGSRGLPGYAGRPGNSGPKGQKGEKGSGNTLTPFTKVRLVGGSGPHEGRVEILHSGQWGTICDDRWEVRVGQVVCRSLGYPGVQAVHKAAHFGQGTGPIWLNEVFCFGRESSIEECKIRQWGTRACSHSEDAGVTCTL

[3] = target: T3, monkey MSR1 extracellular domain expressed with a N-terminal hexahistidine-myc-myc tag (HMM-mfMSR1) (monkey (Macaca fascicularis)); experiment: as above
T3 chain: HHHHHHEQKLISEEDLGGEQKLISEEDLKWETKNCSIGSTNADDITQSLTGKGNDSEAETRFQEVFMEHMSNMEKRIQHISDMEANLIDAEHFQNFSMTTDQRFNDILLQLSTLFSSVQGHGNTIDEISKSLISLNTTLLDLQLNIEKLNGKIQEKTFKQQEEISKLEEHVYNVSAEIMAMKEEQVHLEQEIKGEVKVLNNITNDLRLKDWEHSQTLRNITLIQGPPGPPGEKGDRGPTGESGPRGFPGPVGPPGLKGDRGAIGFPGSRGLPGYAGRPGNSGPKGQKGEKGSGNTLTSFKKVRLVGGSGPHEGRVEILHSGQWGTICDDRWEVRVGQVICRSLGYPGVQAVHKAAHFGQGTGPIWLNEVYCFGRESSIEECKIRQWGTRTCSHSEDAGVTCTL

[4] = target: T4, full length monkey MSR1 on HEK293.mfMSR1 cells (Macaca fascicularis, UniProt A0A2K5UWE2 1-451); experiment: ECL cell binding, HEK293.mfMSR1
T4 construct: whole, on cells
T4 sequence: T1 sequence

[5] = target: T5, full length human MSR1 with a C-terminal Myc tag on HEK293.Myc.hMSR1 cells (human, UniProt P21757 1-451); experiment: ECL cell binding, HEK293.Myc.hMSR1
T5 construct: whole, on cells
T5 sequence (looked up): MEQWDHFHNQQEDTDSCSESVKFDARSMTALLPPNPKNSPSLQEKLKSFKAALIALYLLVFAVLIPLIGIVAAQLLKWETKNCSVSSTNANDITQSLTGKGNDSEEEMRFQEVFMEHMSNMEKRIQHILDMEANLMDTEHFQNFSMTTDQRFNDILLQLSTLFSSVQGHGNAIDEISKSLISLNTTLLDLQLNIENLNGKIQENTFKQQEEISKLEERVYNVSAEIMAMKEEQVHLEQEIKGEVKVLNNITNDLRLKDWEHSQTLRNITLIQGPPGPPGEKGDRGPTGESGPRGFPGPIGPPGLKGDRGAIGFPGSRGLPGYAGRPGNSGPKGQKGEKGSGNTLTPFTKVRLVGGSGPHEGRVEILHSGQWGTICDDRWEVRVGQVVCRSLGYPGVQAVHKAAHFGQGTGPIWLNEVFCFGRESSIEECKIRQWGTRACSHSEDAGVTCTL

[6] = target: T6, mouse MSR1 on RAW264.7 cells (mouse, UniProt P30204 1-458); experiment: flow cytometry, RAW264.7 cells, 10 ug/mL;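 also: antibodies bound to RAW264.7 cells for 30 min on ice after Fc block with mouse IgG, S/N is MFI relative to unstained cells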
T6 construct: whole, on cells
T6 sequence (looked up): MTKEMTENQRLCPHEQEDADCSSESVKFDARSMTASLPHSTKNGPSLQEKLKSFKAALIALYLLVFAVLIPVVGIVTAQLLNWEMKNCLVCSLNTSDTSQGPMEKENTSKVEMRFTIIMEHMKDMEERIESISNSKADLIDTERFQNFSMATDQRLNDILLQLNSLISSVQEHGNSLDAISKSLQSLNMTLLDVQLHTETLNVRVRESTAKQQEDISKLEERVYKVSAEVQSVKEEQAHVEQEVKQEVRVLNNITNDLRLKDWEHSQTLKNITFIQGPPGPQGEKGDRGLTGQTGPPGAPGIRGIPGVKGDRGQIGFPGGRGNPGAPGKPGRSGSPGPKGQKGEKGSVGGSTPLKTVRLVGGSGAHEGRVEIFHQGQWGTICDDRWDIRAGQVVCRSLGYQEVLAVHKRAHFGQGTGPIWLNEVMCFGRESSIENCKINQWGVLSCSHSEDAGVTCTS

[7] = target: T7, human MSR1 extracellular domain expressed with a N-terminal nonahistidine tag (human, UniProt P21757 77-451); experiment: SPR 37C, mAb captured; no dissociation seen, kd fixed
T7 construct: extracellular domain; Bought reagent; also called His9-hMSR1
T7 sequence: T2 sequence

[8] = target: T8, monkey MSR1 extracellular domain expressed with a N-terminal hexahistidine-myc-myc tag (monkey (Macaca fascicularis)); experiment: as above
T8 construct: also called HMM-mfMSR1
T8 chain: T3 chain

B1: H1xH29273P2 (antibody, V domains shown)
VH: QVQLVESGGGVVQSGRSLRLSCAAAGFTFSNYGMHWVRQAPGKGLEWVALMSFDGSDKYYADSVKGRFTISRDNSKNTLYLQMNSLRAEDTALYYCAKGYDFWSGYWDYWGQGTLVTVSS
VL: not shown
notes: The H1xH prefix is not explained for the anti-MSR1 antibodies; Fc form as tested not clear
B1: no binding (tested: 11 nM) [1].

B2: H1H21234N (antibody, V domains shown)
VH: QVQLQESGPGLVKPSETLSLTCTVTGGSISRNYWSWIRQPPGKGLEWIGYIYYSGSIDYNPSLKSRVTISVDTSKNQFSLKLSSMTAADTAVYYCARDRWNWKYGMDVWGQGTTVIVSS
VL: EIVLTQSPGTLSLSPGERATLSCRASQTVRNNYLAWYHQKPGQAPRLLIYGASSRATGIPDRFSGSGSGTDFTLTISRLEPEDFTVYYCHQYGNSPWTFGQGTKMEIKR
notes: original human IgG1 Fc (no N297 mutation)
B2 was tested, and the “t½” value [2] was 19.2 h and the “t½” value [3] was 19.2 h.

B3: H1H21234N-N297Q (antibody, human IgG1, V domains shown)
VH: B2 VH
VL: B2 VL
notes: human IgG1 Fc with N297Q
With B3 the “binding signal ratio to isotype control (11 nM)” value (“binding signal ratio” below) [4] was 35 fold, the “binding signal ratio” value [5] was 43 fold and the MFI [6] was 7050. The S/N [6] was 3, the Kd [7] was ≤ 0.0127 nM and the Kd [8] was ≤ 0.0133 nM.

B4: H1H21234N (antibody, human IgG1, V domains shown)
VH: B2 VH
VL: B2 VL
notes: original human IgG1 Fc
B4 was tested, and the “binding signal ratio” value [4] was 31 fold, the “binding signal ratio” value [5] was 32 fold and the Kd [7] was ≤ 0.0148 nM. For the same binder, the Kd [8] was ≤ 0.0138 nM.
